Experimental data: IntAct's records for PubMed 12097473

B1: Kinesin-like protein KIF1B (Homo sapiens), O60333-3 (parent)
chain: MSGASVKVAVRVRPFNSRETSKESKCIIQMQGNSTSIINPKNPKEAPKSFSFDYSYWSHTSPEDPCFASQNRVYNDIGKEMLLHAFEGYNVCIFAYGQTGAGKSYTMMGKQEESQAGIIPQLCEELFEKINDNCNEEMSYSVEVSYMEIYCERVRDLLNPKNKGNLRVREHPLLGPYVEDLSKLAVTSYTDIADLMDAGNKARTVAATNMNETSSRSHAVFTIVFTQKKHDNETNLSTEKVSKISLVDLAGSERADSTGAKGTRLKEGANINKSLTTLGKVISALAEVSKKKKKTDFIPYRDSVLTWLLRENLGGNSRTAMVAALSPADINYDETLSTLRYADRAKQIKCNAVINEDPNAKLVRELKEEVTRLKDLLRAQGLGDIIDTSMGSLTSSPSSCSLSSQVGLTSVTSIQERIMSTPGGEEAIERLKESEKIIAELNETWEEKLRKTEAIRMEREALLAEMGVAIREDGGTLGVFSPKKTPHLVNLNEDPLMSECLLYYIKDGITRVGQADAERRQDIVLSGAHIKEEHCIFRSERSNSGEVIVTLEPCERSETYVNGKRVSQPVQLRSGNRIIMGKNHVFRFNHPEQARAEREKTPSAETPSEPVDWTFAQRELLEKQGIDMKQEMEKRLQEMEILYKKEKEEADLLLEQQRLDADSDSGDDSDKRSCEESWKLITSLREKLPPSKLQTIVKKCGLPSSGKKREPIKMYQIPQRRRLSKDSKWVTISDLKIQAVKEICYEVALNDFRHSRQEIEALAIVKMKELCAMYGKKDPNERDSWRAVARDVWDTVGVGDEKIEDVMATGKGSTDVDDLKVHIDKLEDILQEVKKQNNMKDEEIKVLRNKMLKMEKVLPLIGSQEQKSPGSHKAKEPVGAGVSSTSENNVSKGDNGELAKEERVSQLMNGDPAFRRGRLRWMRQEQIRFKNLQQQEITKQLRRQNVPHRFIPPENRKPRFPFKSNPKHRNSWSPGTHIIITEDEVIELRIPKDDEARKGNKEESQEKGGKGAFKDPQFPWGSQGMRSQDHIQVSKQHINNQQQPPQLRWRSNSLNNGQPKSTRCQASASAESLNSHSGHPTADVQTFQAKRHIHQHRQSYCNYNTGGQLEGNAATSYQKQTDKPSHCSQFVTPPRMRRQFSAPNLKAGRETTV

Variants of: B1
Settings: with dlg1_rat Dlg1, Q62696
Chain of dlg1_rat Dlg1, Q62696 (Q62696 whole entry): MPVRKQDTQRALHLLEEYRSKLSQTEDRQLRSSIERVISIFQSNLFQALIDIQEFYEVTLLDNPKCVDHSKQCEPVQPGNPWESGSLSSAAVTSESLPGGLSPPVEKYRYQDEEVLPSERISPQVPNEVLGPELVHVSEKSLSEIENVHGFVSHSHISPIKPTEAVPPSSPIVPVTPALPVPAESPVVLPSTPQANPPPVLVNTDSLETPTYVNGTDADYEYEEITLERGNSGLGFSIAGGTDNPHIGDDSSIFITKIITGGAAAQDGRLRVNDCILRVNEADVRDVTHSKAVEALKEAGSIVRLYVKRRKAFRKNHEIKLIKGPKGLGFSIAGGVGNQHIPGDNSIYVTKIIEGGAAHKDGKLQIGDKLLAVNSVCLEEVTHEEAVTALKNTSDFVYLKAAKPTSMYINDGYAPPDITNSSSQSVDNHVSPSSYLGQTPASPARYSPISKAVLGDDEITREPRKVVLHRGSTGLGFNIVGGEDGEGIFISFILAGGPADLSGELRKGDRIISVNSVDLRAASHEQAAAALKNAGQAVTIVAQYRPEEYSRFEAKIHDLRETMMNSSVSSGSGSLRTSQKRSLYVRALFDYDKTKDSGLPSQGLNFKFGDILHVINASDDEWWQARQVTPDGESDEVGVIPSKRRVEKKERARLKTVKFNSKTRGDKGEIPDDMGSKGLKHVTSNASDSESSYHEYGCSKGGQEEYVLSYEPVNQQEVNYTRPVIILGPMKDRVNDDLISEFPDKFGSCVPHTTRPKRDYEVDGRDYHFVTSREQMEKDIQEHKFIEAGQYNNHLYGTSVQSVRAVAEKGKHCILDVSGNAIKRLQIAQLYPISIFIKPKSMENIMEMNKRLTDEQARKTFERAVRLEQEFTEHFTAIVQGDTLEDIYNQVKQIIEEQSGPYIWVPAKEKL

| Variant | effect of a mutation on the interaction |
| --- | --- |
| V1153A | decreasing interaction |

Variants of: B1
Settings: with magi2_rat Magi2, O88382

| Variant | effect of a mutation on the interaction |
| --- | --- |
| V1153A | disrupting interaction |

Variants of: B1
Settings: with dlg1_human DLG1, Q12959
Chain of dlg1_human DLG1, Q12959 (Q12959 whole entry, looked up): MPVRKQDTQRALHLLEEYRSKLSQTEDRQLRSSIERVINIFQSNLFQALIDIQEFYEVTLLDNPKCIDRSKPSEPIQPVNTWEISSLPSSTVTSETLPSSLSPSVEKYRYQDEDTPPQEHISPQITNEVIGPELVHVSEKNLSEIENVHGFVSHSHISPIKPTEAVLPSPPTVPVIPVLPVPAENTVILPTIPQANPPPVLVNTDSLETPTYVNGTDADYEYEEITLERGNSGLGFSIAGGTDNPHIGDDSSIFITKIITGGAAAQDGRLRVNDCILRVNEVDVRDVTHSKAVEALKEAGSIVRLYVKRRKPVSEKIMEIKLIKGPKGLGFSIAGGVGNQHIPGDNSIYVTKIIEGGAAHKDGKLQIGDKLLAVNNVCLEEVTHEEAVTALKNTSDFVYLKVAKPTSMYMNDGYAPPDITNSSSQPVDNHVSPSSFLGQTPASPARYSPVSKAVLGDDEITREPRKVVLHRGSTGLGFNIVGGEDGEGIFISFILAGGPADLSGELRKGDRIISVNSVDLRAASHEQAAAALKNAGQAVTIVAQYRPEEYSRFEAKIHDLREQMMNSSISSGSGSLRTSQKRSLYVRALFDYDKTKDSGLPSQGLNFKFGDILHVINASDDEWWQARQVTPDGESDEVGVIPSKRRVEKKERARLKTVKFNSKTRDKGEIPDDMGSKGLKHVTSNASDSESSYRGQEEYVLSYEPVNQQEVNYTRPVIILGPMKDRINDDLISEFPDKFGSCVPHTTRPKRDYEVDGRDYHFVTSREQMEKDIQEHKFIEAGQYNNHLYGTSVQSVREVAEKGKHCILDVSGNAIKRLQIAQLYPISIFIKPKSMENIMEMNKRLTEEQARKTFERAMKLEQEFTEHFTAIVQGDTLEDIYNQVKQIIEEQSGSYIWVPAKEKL

| Variant | effect of a mutation on the interaction |
| --- | --- |
| V1153A | decreasing interaction |

Variants of: B1
Settings: with dlg2_rat Dlg2, Q63622
Chain of dlg2_rat Dlg2, Q63622 (Q63622 whole entry, looked up): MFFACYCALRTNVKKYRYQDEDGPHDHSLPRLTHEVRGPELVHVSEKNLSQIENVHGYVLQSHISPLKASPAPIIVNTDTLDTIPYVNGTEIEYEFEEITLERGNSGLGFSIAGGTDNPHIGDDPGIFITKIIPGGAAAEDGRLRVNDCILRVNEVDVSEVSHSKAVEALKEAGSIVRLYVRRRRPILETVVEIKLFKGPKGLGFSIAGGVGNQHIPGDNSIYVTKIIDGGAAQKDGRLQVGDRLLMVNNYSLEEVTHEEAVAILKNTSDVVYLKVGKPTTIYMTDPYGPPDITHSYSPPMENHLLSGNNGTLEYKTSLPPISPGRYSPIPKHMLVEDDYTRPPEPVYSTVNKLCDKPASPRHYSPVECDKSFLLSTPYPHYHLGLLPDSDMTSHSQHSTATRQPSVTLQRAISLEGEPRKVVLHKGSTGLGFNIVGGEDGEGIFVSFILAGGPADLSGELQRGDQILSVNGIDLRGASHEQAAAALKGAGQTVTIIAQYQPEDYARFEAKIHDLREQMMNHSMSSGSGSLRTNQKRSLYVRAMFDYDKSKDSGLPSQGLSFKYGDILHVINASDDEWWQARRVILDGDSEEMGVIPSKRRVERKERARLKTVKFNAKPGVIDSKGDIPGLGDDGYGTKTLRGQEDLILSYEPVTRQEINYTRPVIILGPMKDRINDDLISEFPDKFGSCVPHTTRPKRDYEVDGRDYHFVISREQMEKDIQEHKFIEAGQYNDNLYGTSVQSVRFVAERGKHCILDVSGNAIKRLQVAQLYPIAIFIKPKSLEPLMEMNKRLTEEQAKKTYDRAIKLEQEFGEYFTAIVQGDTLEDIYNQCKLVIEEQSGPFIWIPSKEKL

| Variant | effect of a mutation on the interaction |
| --- | --- |
| V1153A | disrupting interaction |

Variants of: B1
Settings: with magi1_human MAGI1, Q96QZ7
Chain of magi1_human MAGI1, Q96QZ7 (Q96QZ7 whole entry): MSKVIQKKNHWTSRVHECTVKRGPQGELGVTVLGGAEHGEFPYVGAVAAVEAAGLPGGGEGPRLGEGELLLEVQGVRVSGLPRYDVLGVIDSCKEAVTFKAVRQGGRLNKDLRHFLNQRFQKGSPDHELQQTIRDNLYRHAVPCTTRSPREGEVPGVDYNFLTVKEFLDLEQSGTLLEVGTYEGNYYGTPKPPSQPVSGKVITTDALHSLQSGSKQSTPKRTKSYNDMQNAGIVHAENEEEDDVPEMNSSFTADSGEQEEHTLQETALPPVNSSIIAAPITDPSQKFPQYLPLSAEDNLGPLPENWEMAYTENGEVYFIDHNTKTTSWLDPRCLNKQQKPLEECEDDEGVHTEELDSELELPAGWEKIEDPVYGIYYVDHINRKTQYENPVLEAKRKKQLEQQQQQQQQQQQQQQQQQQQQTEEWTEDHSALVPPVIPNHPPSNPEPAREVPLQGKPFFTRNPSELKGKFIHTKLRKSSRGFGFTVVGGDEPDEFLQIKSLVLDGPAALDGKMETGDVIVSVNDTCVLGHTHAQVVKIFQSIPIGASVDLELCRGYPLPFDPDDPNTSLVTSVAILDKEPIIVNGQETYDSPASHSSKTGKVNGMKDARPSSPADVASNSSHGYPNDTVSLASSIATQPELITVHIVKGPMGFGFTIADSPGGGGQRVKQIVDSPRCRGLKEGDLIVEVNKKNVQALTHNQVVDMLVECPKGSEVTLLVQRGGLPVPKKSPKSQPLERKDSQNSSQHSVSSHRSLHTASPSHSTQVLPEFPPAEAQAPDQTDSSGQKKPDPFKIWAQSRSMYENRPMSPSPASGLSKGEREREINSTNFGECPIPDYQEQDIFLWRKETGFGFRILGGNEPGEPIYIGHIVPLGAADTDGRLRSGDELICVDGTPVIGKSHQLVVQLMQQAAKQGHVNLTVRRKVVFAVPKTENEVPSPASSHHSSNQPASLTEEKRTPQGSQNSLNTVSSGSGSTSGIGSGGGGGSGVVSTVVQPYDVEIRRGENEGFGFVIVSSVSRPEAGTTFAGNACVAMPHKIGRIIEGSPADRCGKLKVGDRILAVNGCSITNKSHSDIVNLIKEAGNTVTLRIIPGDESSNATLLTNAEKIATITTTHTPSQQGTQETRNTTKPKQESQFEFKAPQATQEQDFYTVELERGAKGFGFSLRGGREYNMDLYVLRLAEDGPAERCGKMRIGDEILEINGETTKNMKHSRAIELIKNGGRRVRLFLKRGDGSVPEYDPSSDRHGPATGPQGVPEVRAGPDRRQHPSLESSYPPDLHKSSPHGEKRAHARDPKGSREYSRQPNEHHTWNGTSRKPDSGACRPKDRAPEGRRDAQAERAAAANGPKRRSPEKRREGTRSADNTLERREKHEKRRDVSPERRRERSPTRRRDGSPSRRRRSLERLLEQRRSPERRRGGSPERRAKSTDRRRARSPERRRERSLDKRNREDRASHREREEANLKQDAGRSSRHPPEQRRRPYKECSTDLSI

| Variant | effect of a mutation on the interaction |
| --- | --- |
| V1153A | disrupting interaction |
